Assay results: patent US20150344570A1 (published 2015)

T1: FcγRIIa R (FcγRIIa allotype with Arg at position 131), extracellular domain with C-terminal His tag (human, UniProt P12318 34-217)
T1 construct: extracellular domain; made in FreeStyle293 cells; analyte in the Biacore assay; also called FcγRIIa type R; 2aR
T1 sequence (looked up): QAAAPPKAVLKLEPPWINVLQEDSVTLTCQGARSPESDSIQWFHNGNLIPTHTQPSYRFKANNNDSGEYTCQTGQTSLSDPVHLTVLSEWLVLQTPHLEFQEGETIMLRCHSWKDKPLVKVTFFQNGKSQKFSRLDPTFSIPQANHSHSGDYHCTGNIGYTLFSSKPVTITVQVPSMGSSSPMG

T2: FcγRIIb, extracellular domain with C-terminal His tag (human, UniProt P31994 43-217)
T2 construct: extracellular domain; made in FreeStyle293 cells; analyte in the Biacore assay; also called 2b; FcgRIIb
T2 sequence (looked up): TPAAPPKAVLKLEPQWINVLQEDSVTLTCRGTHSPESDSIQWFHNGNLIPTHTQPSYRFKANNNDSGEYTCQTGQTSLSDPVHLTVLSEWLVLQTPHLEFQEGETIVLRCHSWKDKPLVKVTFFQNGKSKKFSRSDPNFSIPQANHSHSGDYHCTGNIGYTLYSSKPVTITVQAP


How the values were obtained:
[1] = target: T1, FcγRIIa R (FcγRIIa allotype with Arg at …); assay: SPR (Biacore), antibody captured, FcγR analyte; vs GpH7-A5/GpH7-B3/GpL16-k0 = 100
[2] = target: T2, FcγRIIb, extracellular domain with …; assay: as above
[3] = target: T1, FcγRIIa R (FcγRIIa allotype with Arg at …); assay: SPR (Biacore); He/Con_2aR divided by He/Con_2b, binding to FcγRIIa R against binding to FcγRIIb
Protocol: The heterodimerized antibodies He Abs in which one of the H chains was introduced with an alteration were assayed for their binding activities to each activating FcγR and inhibitory FcγR according to the method described in Example 4. […] The activating FcγRs in FIGS. 26, 27, 28, and 29 are FcγRIa, FcγRIIa (R), FcγRIIa (H), and FcγRIIIa, respectively.
Analysis of interaction between objective antibody and the FcγR was carried out using Biacore T100 (GE Healthcare). HBS-EP+ (GE Healthcare) was used as the running buffer, and the measurement temperature was set to 25° C. Chips produced by immobilizing the antigen peptide by the amine coupling method to a Series S Sencor Chip CM5 (GE Healthcare), or alternatively, chips produced by allowing preliminarily biotinylated antigen peptides to interact with and immobilize onto a Series S Sensor Chip SA (certified) (GE Healthcare) were used. Antibodies of interest were captured onto an antigen peptide-immobilized chip, and allowed to interact to each FcγR diluted with running buffer. To regenerate and repeatedly use the chip, the antibodies captured on the chip were washed off by reacting 10 mM glycine-HCl, pH 1.5.

He/Con_2aR [1]	He/Con_2b [2]	He_2aR/2b (IIaR/IIb) [3] [ratio]	Binder
103 relative (HeCon Ab = 100)	57.8 relative (HeCon Ab = 100)	1.78	GpH7-A5/GpH7-B3 variant G236_14T/GpL16-k0 (antibody, human IgG1, kappa, heterodimerized IgG1, mutation in one H chain only; also called He Ab) heavy 1: not shown heavy 2: not shown light: DIVMTQSPLSLPVTPGEPASISCQASESLVHSNRNTYLHWYLQKPGQSPQLLIYKVSNRFSGVPDRFSGSGSGTDFTLKISRVEAEDVGVYYCSQNTHVPPTFGQGTKVEIERTVAAPSVFIFPPSDEQLKSGTASVVCLLNNFYPREAKVQWKVDNALQSGNSQESVTEQDSKDSTYSLSSTLTLSKADYEKHKVYACEVTHQGLSSPVTKSFNRGEC
89.6 relative (HeCon Ab = 100)	72.9 relative (HeCon Ab = 100)	1.23	GpH7-A5/GpH7-B3 variant L234_05P/GpL16-k0 (antibody, human IgG1, kappa, heterodimerized IgG1, mutation in one H chain only; also called He Ab) heavy 1: not shown heavy 2: not shown light: DIVMTQSPLSLPVTPGEPASISCQASESLVHSNRNTYLHWYLQKPGQSPQLLIYKVSNRFSGVPDRFSGSGSGTDFTLKISRVEAEDVGVYYCSQNTHVPPTFGQGTKVEIERTVAAPSVFIFPPSDEQLKSGTASVVCLLNNFYPREAKVQWKVDNALQSGNSQESVTEQDSKDSTYSLSSTLTLSKADYEKHKVYACEVTHQGLSSPVTKSFNRGEC
94.8 relative (HeCon Ab = 100)	76.9 relative (HeCon Ab = 100)	1.23	GpH7-A5/GpH7-B3 variant L235_16H/GpL16-k0 (antibody, human IgG1, kappa, heterodimerized IgG1, mutation in one H chain only; also called He Ab) heavy 1: not shown heavy 2: not shown light: DIVMTQSPLSLPVTPGEPASISCQASESLVHSNRNTYLHWYLQKPGQSPQLLIYKVSNRFSGVPDRFSGSGSGTDFTLKISRVEAEDVGVYYCSQNTHVPPTFGQGTKVEIERTVAAPSVFIFPPSDEQLKSGTASVVCLLNNFYPREAKVQWKVDNALQSGNSQESVTEQDSKDSTYSLSSTLTLSKADYEKHKVYACEVTHQGLSSPVTKSFNRGEC
66.5 relative (HeCon Ab = 100)	54.9 relative (HeCon Ab = 100)	1.21	GpH7-A5/GpH7-B3 variant L235_18N/GpL16-k0 (antibody, human IgG1, kappa, heterodimerized IgG1, mutation in one H chain only; also called He Ab) heavy 1: not shown heavy 2: not shown light: DIVMTQSPLSLPVTPGEPASISCQASESLVHSNRNTYLHWYLQKPGQSPQLLIYKVSNRFSGVPDRFSGSGSGTDFTLKISRVEAEDVGVYYCSQNTHVPPTFGQGTKVEIERTVAAPSVFIFPPSDEQLKSGTASVVCLLNNFYPREAKVQWKVDNALQSGNSQESVTEQDSKDSTYSLSSTLTLSKADYEKHKVYACEVTHQGLSSPVTKSFNRGEC
75.1 relative (HeCon Ab = 100)	60.3 relative (HeCon Ab = 100)	1.24	GpH7-A5/GpH7-B3 variant L234_19Q/GpL16-k0 (antibody, human IgG1, kappa, heterodimerized IgG1, mutation in one H chain only; also called He Ab) heavy 1: not shown heavy 2: not shown light: DIVMTQSPLSLPVTPGEPASISCQASESLVHSNRNTYLHWYLQKPGQSPQLLIYKVSNRFSGVPDRFSGSGSGTDFTLKISRVEAEDVGVYYCSQNTHVPPTFGQGTKVEIERTVAAPSVFIFPPSDEQLKSGTASVVCLLNNFYPREAKVQWKVDNALQSGNSQESVTEQDSKDSTYSLSSTLTLSKADYEKHKVYACEVTHQGLSSPVTKSFNRGEC
62.3 relative (HeCon Ab = 100)	50.7 relative (HeCon Ab = 100)	1.23	GpH7-A5/GpH7-B3 variant L234_01G/GpL16-k0 (antibody, human IgG1, kappa, heterodimerized IgG1, mutation in one H chain only; also called He Ab) heavy 1: not shown heavy 2: not shown light: DIVMTQSPLSLPVTPGEPASISCQASESLVHSNRNTYLHWYLQKPGQSPQLLIYKVSNRFSGVPDRFSGSGSGTDFTLKISRVEAEDVGVYYCSQNTHVPPTFGQGTKVEIERTVAAPSVFIFPPSDEQLKSGTASVVCLLNNFYPREAKVQWKVDNALQSGNSQESVTEQDSKDSTYSLSSTLTLSKADYEKHKVYACEVTHQGLSSPVTKSFNRGEC
65.3 relative (HeCon Ab = 100)	48.2 relative (HeCon Ab = 100)	1.36	GpH7-A5/GpH7-B3 variant L235_13S/GpL16-k0 (antibody, human IgG1, kappa, heterodimerized IgG1, mutation in one H chain only; also called He Ab) heavy 1: not shown heavy 2: not shown light: DIVMTQSPLSLPVTPGEPASISCQASESLVHSNRNTYLHWYLQKPGQSPQLLIYKVSNRFSGVPDRFSGSGSGTDFTLKISRVEAEDVGVYYCSQNTHVPPTFGQGTKVEIERTVAAPSVFIFPPSDEQLKSGTASVVCLLNNFYPREAKVQWKVDNALQSGNSQESVTEQDSKDSTYSLSSTLTLSKADYEKHKVYACEVTHQGLSSPVTKSFNRGEC
10.8 relative (HeCon Ab = 100)	6.3 relative (HeCon Ab = 100)	1.72	GpH7-A5/GpH7-B3 variant L235_11K/GpL16-k0 (antibody, human IgG1, kappa, heterodimerized IgG1, mutation in one H chain only; also called He Ab) heavy 1: not shown heavy 2: not shown light: DIVMTQSPLSLPVTPGEPASISCQASESLVHSNRNTYLHWYLQKPGQSPQLLIYKVSNRFSGVPDRFSGSGSGTDFTLKISRVEAEDVGVYYCSQNTHVPPTFGQGTKVEIERTVAAPSVFIFPPSDEQLKSGTASVVCLLNNFYPREAKVQWKVDNALQSGNSQESVTEQDSKDSTYSLSSTLTLSKADYEKHKVYACEVTHQGLSSPVTKSFNRGEC
